The MegaScale stability set (Tsuboyama et al. 2023)

B1: 2M8U (parent)
chain: TKAQVIEAFKVFDRDGNGYVTVDYLRKVLNELGDMMPADEIEEMIYEADPQNSGYVQYETFVGMLFL

Variants of: B1
Test: folding stability dG (cDNA display proteolysis); higher = more stable
Conditions: PBS, room temperature

Folding stability dG [kcal/mol] of substitutions, site by site:
T60: K 3.72; S 3.6; V 3.31; R 3.68; L 3.72; F 3.32; Q 3.55; H 3.66; W 3.58; C 3.43; A 3.63; D 3.42; I 3.58; P 3.52; M 3.44; E 3.61; Y 3.43
F61: M 2.31; P 0.783; D 0.727; Y 2.17; A 2.41; I 3.6; E 0.86; C 2.13; K 1.35; W 2.62; Q 1.17; R 1.29; L 2.65; T 1.87; H 1.1; V 3.46; N 1.32; S 1.33; G 0.903
S53: L 3.2; F 3.16; I 3.21; R 3.35; T 3.49; M 3.23; K 3.39; G 2.94; H 3.11; Q 3.28; W 3.22; Y 3.2; P 2.4; V 3.15; N 3.26
V62: C 2.48; A 3.15
V56: E 2.33; C 2.17; A 2.7; L 3.07; G 2.62; R 2.24; T 2.14; P 1.86; H 2.04; Q 1.96; N 1.99; W 2.49; Y 2.29; K 1.78; D 2.39; F 2.62; I 3.69; S 2.17; M 2.55
E59: F 3.54; N 2.91; M 3.93; H 3.24; T 3.12; S 3.05; P 2.47; L 3.47; R 3.06; Q 3.11; D 2.99; A 3.15; V 3.68; I 3.41; Y 3.82; W 3.37; K 3.23; C 3.25; G 2.76
G54: N 2.9; I 2.76; S 2.48; D 2.06; H 2.49; K 2.47; Q 2.29; C 2.59; T 2.35; M 2.59; Y 2.93; W 2.82; L 2.48; R 2.56; P 2.26; A 2.36; V 2.48; F 2.89; E 2.26
Y58: N 1.27; L 2.51; W 3.45; G 1.62; P 1.71; T 2.02; C 2.07; V 2.67; A 2.11; D 1.3; M 2.46; R 1.77; F 2.81; E 1.4; I 3.25; S 2.04; H 1.99; Q 1.77; K 1.56
Q57: A 3.31; R 3.13; T 2.41; I 2.96; L 3.08; W 3.18; H 3.85; K 3.2; S 2.71; G 2.69; P 2.64; V 3.1; C 3.25; E 3.56; D 3.25; N 3.61; F 3.62; M 3.27; Y 3.51
Y55: L 3.35; N 3.16; G 2.16; C 3.44; K 3.25; W 3.55; M 3.51; D 2.22; I 3.37; Q 3.48; T 3.11; E 3.05; R 3.37; F 3.35; H 3.22; V 3.44; A 2.82; S 3.25; P 1.77
